Residue numbers refer to the chain shown, from its start. Where no end group is shown, it is not given here. [ ]: non-standard residue; d: D form. pGlu = O=C1CC[C@@H](C(=O)O)N1

Experimental findings from patent publication EP4768503A1 (Keymed Biosciences (Chengdu) Co., Ltd., dated 2026) are described below.

Assay [1] deals with T1, pyroE Aβ3-42 peptide (human, pyroglutamate derived from glutamic acid at the third amino acid position of Aβ (N-terminus of the peptide)).
T1 construct: Synthetic peptide; It lacks the first two N-terminal residues of Aβ; also called pyroglutamate-modified β-amyloid
As to the kind of experiment: graded binding, chimeric antibody (assay not named; ELISA in Example 1).

Assay [2] concerns the target T2, Aβ1-42 protofibril (human).
T2 construct: also called amyloid protofibril
As to the kind of experiment: SPR (Biacore T200), protofibril on CM5 chip, antibody as analyte.

The target of assay [3] is T3, pyroE Aβ3-16-biotin polypeptide (human, also: biotin, position not given here).
T3 peptide: [pGlu]FRHDSGYEVHHQK
As to the kind of experiment: SPR (Biacore T200), biotinylated peptide on SA chip, antibody as analyte; antigen channel not given.

T2 sequence (peptide, as listed by the source): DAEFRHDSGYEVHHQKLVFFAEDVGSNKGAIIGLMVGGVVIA
T1 sequence (peptide, as listed by the source): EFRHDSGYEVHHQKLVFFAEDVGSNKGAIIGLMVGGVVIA

B1: 175P19 (antibody, V domains shown)
VH: EVMLVESGRDLVKPGGSLRLSCAASGFTFSTYAMSWIRQTPEKRLEWVATITSAGTYTYYPDSVKGRFTISRDNAKNTLYLQMRSLRSEDTAMYYCVRHELITTVVSTDYFSMDYWGQGTSVTVSS
VL: DIVLTQSPASLAVSLGQRATISCRASESVEYYGTSLMQWYQQKPGQPPKLLIYAASNVESGVPARFSGSGSGTDFSLNIHPVEEDDVAMYFCQQSRKVPLTFGAGTKLELK
notes: Chimeric antibody; the constant region of the chimeric form is not specified
On to B1, for which the binding result in assay [1] is “binds”.

B2: 185O18 (antibody, V domains shown)
VH: B1 VH with R19K, S53N, A54Y
VL: B1 VL with Y31D
notes: Chimeric antibody; also called 185018
As for B2, in assay [1], the binding result was “binds”.

B3: 193D22 (antibody, V domains shown)
VH: EVKLVESGGGLVKPGGSLKLSCAASGFAFSSYDMSWVRQTPEKRLEWVATISNGGSYTYYPDSVKGRFSISRDNARNTLYLQMSSLRSEDTALYYCARHPLYYGNYGWWYFDVWGAGTTVTVSS
VL: DVVMTQTPLSLPVSLGDQASISCRSSQSLVYSNGNTYLYWYLQKPGQSPKLLIYKVSNRFSGVPDRFSGSGSGTDFTLKISRVEAEDLGVYFCSQSTHVPLTFGAGTKLELK
notes: as for B1
B3: the binding result in assay [1] is “binds”.

B4: 193M7 (antibody, V domains shown)
VH: B3 VH with N53S, G54R, S56T, S69T, D73N, W108Y
VL: B3 VL with Y31H, N33D, T36I
notes: as for B1
Regarding B4, in assay [1], the binding result was “binds”.

B5: 6B5 H1K2 hIgG1 (antibody, V domains shown)
VH: QVQLVQSGAEVKKPGASVKVSCKASGYTFTTYWMHWVRQAPGQGLEWIGEIDPSDSYTNYNQKFKGRATLTVDKSSSTAYMELSSLRSEDTAVYYCARSFHGNFFVYWGQGTLVTVSS
VL: EIVLTQSPATLSLSPGERATLSCRASSSVSYMHWFQQKPGQAPRLLIYSTSNLATGIPARFSGSGSGTDYTLTISRLEPEDFAVYYCQQRSSYPLTFGQGTKLEIK
notes: also called h6B5 H1 + h6B5 K2
As usually defined, the Kd is the concentration at which binding is half-saturated. Usually koff stands for the first-order rate constant of dissociation. Read a low koff as a long-lived complex. As a reminder, the kon is the rate constant with which the complex forms. Low values mean slow association, high ones fast association. In assay [2], B5 showed a dissociation constant Kd of 2.11 nM, an off-rate constant (koff) of 0.00361 s⁻¹ and a kon of 1.71e+06 M⁻¹ s⁻¹.

B6: 6B5 H1K5 hIgG1 (antibody, V domains shown)
VH: B5 VH
VL: DIQMTQSPSSLSASVGDRVTITCRASSSVSYMHWFQQKPGKAPKLLIYSTSNLASGVPSRFSGSGSGTDYTLTISSLQPEDFATYYCQQRSSYPLTFGQGTKLEIK
notes: also called h6B5 H1 + h6B5 K5
In assay [2], B6 yielded a dissociation constant Kd of 1.87 nM, a koff of 0.00354 s⁻¹ and an on-rate (kon) of 1.9e+06 M⁻¹ s⁻¹.

B7: 6B5 H1K4 hIgG1 (antibody, V domains shown)
VH: B5 VH
VL: B6 VL with M4L, L46W
notes: also called h6B5 H1 + h6B5 K4
As for B7, in assay [2], the Kd came to 1.6 nM, the dissociation rate constant (koff) worked out at 0.00229 s⁻¹ and the kon stood at 1.43e+06 M⁻¹ s⁻¹.

B8: 6B5 H1K3 hIgG1 (antibody, V domains shown)
VH: B5 VH
VL: B5 VL with N52S, L53R
notes: also called h6B5 H1 + h6B5 K3
Turning to B8, in assay [2], the affinity, expressed as Kd, was 1.42 nM; the off-rate constant (koff) was found to be 0.00404 s⁻¹; the association rate constant (kon) stood at 2.85e+06 M⁻¹ s⁻¹.

B9: 6B5 H1K6 hIgG1 (antibody, V domains shown)
VH: B5 VH
VL: B6 VL with N52S, A54Q
notes: also called h6B5 H1 + h6B5 K6
In assay [2], B9 returned an equilibrium dissociation constant (Kd) of 1.64 nM, a koff of 0.00401 s⁻¹ and a kon of 2.44e+06 M⁻¹ s⁻¹.

B10: 6B5 H1K1 hIgG1 (antibody, V domains shown)
VH: B5 VH
VL: B5 VL with L46W, T55S
notes: also called h6B5 H1 + h6B5 K1
For B10, in assay [2], the Kd worked out at 1.7 nM, the koff is 0.00255 s⁻¹ and the kon was 1.49e+06 M⁻¹ s⁻¹.

B11: 178D4 (antibody, V domains shown)
VH: QVQLQQSGAELVKPGASVKLSCKASGYTFTSYDLNWVRQRPEQGLEWIGWTFPGDGRTKYNEKFKGKATLTTDKSSSTAYMHLSRLTSEDSAVYFCVRWDYYGRSTGYFDVWGAGTTVTVSS
VL: QIVLTQSPAIMSASLGERVTMTCTASSSVSSSYLHWYQQRPGSSPKLWIYGTSNLASGVPARFSGSGSGTSYSLTISSMEAEDAATYYCHQYHRSPLTFGAGTKLELK
notes: as for B1
In the case of B11, in assay [1], the binding result is “binds”.

B12: 192E15 (antibody, V domains shown)
VH: EVKLVESGGGLVQPGGSRKLSCAASGFTFSDYGMAWVRQAPGKGPEWVAFISNLAYSIYYADTVTGRFTISRQNAKNTLYLEMSSLRSEDTAMYYCARDRGYDGHSPYYAMDYWGQGTSVTVSS
VL: QAVVTQESALTTSPGETVTLTCRSSTGAVTTSNYANWVQEKPDHLFTGLIGGTSNRPPGVPARFSGSLIGDKAALTITGAQTEDEAIYFCALWYSHHWVFGGGTKLTVL
notes: as for B1
Consider B12, for which, in assay [1], the binding result was “binds”.

B13: 7C8 H2K2 hIgG1 (antibody, V domains shown)
VH: QVTLKESGPALVKPTQTLTLTCTFSGFSLSTSGMGVSWIRQPPGKALEWLAHIYWDDDKRYNPSLKSRLTITKDTSKNQVVLTMTNMDPVDTATYYCARYGKGFAYWGQGTLVTVSS
VL: DIVMTQSPLSLPVTPGEPASISCRSSQSIVHSNGNTYLDWYLQKPGQSPQLLIYKVSNRFSGVPDRFSGSGSGTDFTLKISRVEAEDVGVYYCFQGSHVPLTFGQGTKLEIK
notes: also called h7C8 H2 + h7C8 K2
In assay [2], B13 came in with a Kd of 2.76 nM, a koff of 0.00293 s⁻¹ and a kon of 1.06e+06 M⁻¹ s⁻¹.

B14: 7C8 H6K2 hIgG1 (antibody, V domains shown)
VH: QVQLQESGPGLVKPSETLSLTCTFSGFSISTSGMGVSWIRQPPGKGLEWIGHIYWDDDKRYNPSLKSRVTISKDTSKNQVSLKLSSVTAADTAVYYCARYGKGFAYWGQGTLVTVSS
VL: B13 VL
notes: also called h7C8 H6K2 hIgG1; h7C8 H6K2
In assay [2], B14 returned a dissociation constant (Kd) of 2.8 nM, a dissociation rate constant (koff) of 0.0041 s⁻¹ and a kon of 1.46e+06 M⁻¹ s⁻¹.

B15: 7C8 H7K1 hIgG1 (antibody, V domains shown)
VH: B14 VH with F24V
VL: B13 VL with I2V, D39E, Q50K
notes: also called h7C8 H7 + h7C8 K1
Take B15: in assay [2], the Kd is 1.93 nM, the koff came to 0.00466 s⁻¹ and the kon stood at 2.42e+06 M⁻¹ s⁻¹.

B16: 7C8 H4K2 hIgG1 (antibody, V domains shown)
VH: B14 VH with I29L, I50L, G51A, K77R
VL: B13 VL
notes: also called h7C8 H4 + h7C8 K2
In assay [2], B16 had a Kd of 3.08 nM, a koff of 0.0037 s⁻¹ and a kon of 1.2e+06 M⁻¹ s⁻¹.

B17: 7C8 H6K1 hIgG1 (antibody, V domains shown)
VH: B14 VH
VL: B13 VL with I2V, D39E, Q50K
notes: also called h7C8 H6 + h7C8 K1
In assay [2], B17 registered a Kd of 2.63 nM, a koff of 0.00472 s⁻¹ and a kon of 1.79e+06 M⁻¹ s⁻¹.

B18: 7C8 H2K1 hIgG1 (antibody, V domains shown)
VH: B13 VH
VL: B13 VL with I2V, D39E, Q50K
notes: also called h7C8 H2 + h7C8 K1
In assay [2], B18 came in with a Kd of 2.74 nM, a koff of 0.0028 s⁻¹ and a kon of 1.02e+06 M⁻¹ s⁻¹.

B19: 7C8 H5K2 hIgG1 (antibody, V domains shown)
VH: B14 VH with I29L, G51A
VL: B13 VL
notes: also called h7C8 H5 + h7C8 K2
Consider B19, for which, in assay [2], the Kd was 2.95 nM, the koff was determined as 0.00395 s⁻¹ and the kon amounted to 1.34e+06 M⁻¹ s⁻¹.

B20: 7C8 H7K2 hIgG1 (antibody, V domains shown)
VH: B14 VH with F24V
VL: B13 VL
notes: also called h7C8 H7 + h7C8 K2
With B20, in assay [2], the equilibrium dissociation constant (Kd) came out at 2.33 nM, the off-rate constant (koff) worked out at 0.00415 s⁻¹ and the on-rate constant (kon) came to 1.78e+06 M⁻¹ s⁻¹.

B21: 200O1 H1K1 (antibody, V domains shown)
VH: QVTLKESGPVLVKPTETLTLTCTVSGFSLSRYIVHWYRQPPGKALEWLAMIWGGGRIDYNSALKSRLTISKDNSKSQVVLTMTNMDPVDTATYYCARNFGENAEAYWGQGTLVTVSS
VL: DIQMTQSPSSLSASVGDRVTITCRASQDINIYLNWYQQKPGKVVKLLIYYTSRLHSGVPSRFSGSGSGTDFTLTISSLQPEDVATYFCQQGHTLPYTFGQGTKLEIK
notes: also called h200O1 H1K1 hIgG1; h200O1 H1K1
Regarding B21, in assay [3], binding was put at a Kd of 0.0011 pM and the association rate constant (kon) was found to be 682000 M⁻¹ s⁻¹.

B22: 200O1 H5K1 (antibody, V domains shown)
VH: QVQLQESGPGLVKPSETLSLTCTVSGFSLSRYIVHWYRQPPGKGLEWIGMIWGGGRIDYNSALKSRVTISKDNSKSQVSLKLSSVTAADTAVYYCARNFGENAEAYWGQGTLVTVSS
VL: B21 VL
notes: also called h200O1 H5 + h200O1 K1
As for B22, in assay [3], the affinity, expressed as Kd, was 0.0736 pM; the koff turned out to be 5.7e-08 s⁻¹; the kon was 776000 M⁻¹ s⁻¹.

B23: 200O1 H6K1 (antibody, V domains shown)
VH: B22 VH with N73T, S76N
VL: B21 VL
notes: also called h200O1 H6 + h200O1 K1
In assay [3], B23 yielded a Kd of 0.61 pM, a koff of 4.55e-07 s⁻¹ and a kon of 747000 M⁻¹ s⁻¹.

B24: 200O1 H2K1 (antibody, V domains shown)
VH: B21 VH with N73T
VL: B21 VL
notes: also called h200O1 H2 + h200O1 K1
In assay [3], B24 came in with a dissociation constant Kd of 0.625 pM, a koff of 2.38e-07 s⁻¹ and a kon of 381000 M⁻¹ s⁻¹.

B25: 171P1 (antibody, V domains shown)
VH: QVQLEQPGAVSVRPGASVKLSCKASGYTFTSYWINWVKQRPGQGLEWIGNIYPSDSYTHYNQKFKDKATLTVDKSSTTAYMQISSPTSEDSAVYYCTREGTVVYWGQGTLLTVSA
VL: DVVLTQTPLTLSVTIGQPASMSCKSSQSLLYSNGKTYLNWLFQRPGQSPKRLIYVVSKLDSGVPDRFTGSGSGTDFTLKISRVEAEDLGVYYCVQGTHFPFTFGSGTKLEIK
notes: as for B1
With B25, the binding result in assay [1] is on record as “binds”.

B26: 151N5 H1K1 (antibody, V domains shown)
VH: EVQLVESGGGLVKPGGSLRLSCAASGFTFSDFYMYWVRQAPGKGLEWVATISDGGRYTYYPDRLKGRFTISRDIAKNSLYLQMNSLRAEDTAVYYCARGRSTMITTTRNYFALDYWGQGTLVTVSS
VL: DIQMTQSPSSLSASVGDRVTITCKASEDIYNRLAWYQQKPGKAPKLLISGATSLETGVPSRFSGSGSGKDYTLTISSLQPEDIATYYCQQYWRTPLTFGQGTKLEIK
notes: also called h151N5 H1 + h151N5 K1
Take B26: in assay [3], the Kd was determined as 321 pM, the koff was determined as 0.0002 s⁻¹ and the kon was found to be 622000 M⁻¹ s⁻¹.

B27: 151N5 H1K2 (antibody, V domains shown)
VH: B26 VH
VL: B26 VL with I83V
notes: also called h151N5 H1 + h151N5 K2
Regarding B27, in assay [3], binding was characterised by a dissociation constant (Kd) of 319 pM, the koff is 0.000207 s⁻¹ and the kon was determined as 648000 M⁻¹ s⁻¹.
